Measured values taken from PMC1140373 (Nucleic Acids Research, 2005).
Where a chain is given by its changes, count along the chain named. Names and notes keep the numbering of the source.

B1: Human TFIIEβ, wild type, His6 tagged (natural protein, UniProt P29084 1-291, looked up)
chain: MDPSLLRERELFKKRALSTPVVEKRSASSESSSSSSKKKKTKVEHGGSSGSKQNSDHSNGSFNLKALSGSSGYKFGVLAKIVNYMKTRHQRGDTHPLTLDEILDETQHLDIGLKQKQWLMTEALVNNPKIEVIDGKYAFKPKYNVRDKKALLRLLDQHDQRGLGGILLEDIEEALPNSQKAVKALGDQILFVNRPDKKKILFFNDKSCQFSVDEEFQKLWRSVTVDSMDEEKIEEYLKRQGISSMQESGPKKVAPIQRRKKPASQKKRRFKTHNEHLAGVLKDYSDITSSK
B2: Human TFIIEβ I171S, His6 tagged (natural protein, UniProt P29084 1-291, looked up)
chain: B1 chain with I171S
B3: Human TFIIEβ I189S, His6 tagged (natural protein, UniProt P29084 1-291, looked up)
chain: B1 chain with I189S

Legend:
[1] = target: T1, Glutathione S-transferase (GST)-tagged human XPB (human, UniProt P19447 1-782); assay: cell-based or functional assay
co-IP = target: the molecule itself; assay: co-IP
[2] = target: T2, Human TFIIEα, wild type, N-terminal FLAG tag (human, UniProt P29083 1-439); assay: pull-down
T2 sequence (looked up): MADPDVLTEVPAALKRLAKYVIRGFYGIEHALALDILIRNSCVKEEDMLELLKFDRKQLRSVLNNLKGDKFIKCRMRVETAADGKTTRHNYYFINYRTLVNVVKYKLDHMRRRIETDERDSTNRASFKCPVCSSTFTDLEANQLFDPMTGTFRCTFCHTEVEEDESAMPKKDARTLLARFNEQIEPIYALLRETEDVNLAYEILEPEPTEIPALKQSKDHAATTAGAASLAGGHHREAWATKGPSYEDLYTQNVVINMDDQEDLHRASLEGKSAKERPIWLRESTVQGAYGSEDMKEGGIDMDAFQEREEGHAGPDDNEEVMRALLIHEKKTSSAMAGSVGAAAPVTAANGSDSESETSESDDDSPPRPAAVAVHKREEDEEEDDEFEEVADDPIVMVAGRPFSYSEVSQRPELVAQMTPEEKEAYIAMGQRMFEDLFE

[3] = target: T3, FLAG-tagged wild type TFIIEβ (human, UniProt P29084 1-291); assay: co-IP
T3 sequence (looked up): B1 chain

[4] = target: T2, Human TFIIEα, wild type, N-terminal …; assay: co-IP
[5] = target: T1, Glutathione S-transferase (GST)-tagged …; assay: pull-down

T1 sequence (P19447 whole entry): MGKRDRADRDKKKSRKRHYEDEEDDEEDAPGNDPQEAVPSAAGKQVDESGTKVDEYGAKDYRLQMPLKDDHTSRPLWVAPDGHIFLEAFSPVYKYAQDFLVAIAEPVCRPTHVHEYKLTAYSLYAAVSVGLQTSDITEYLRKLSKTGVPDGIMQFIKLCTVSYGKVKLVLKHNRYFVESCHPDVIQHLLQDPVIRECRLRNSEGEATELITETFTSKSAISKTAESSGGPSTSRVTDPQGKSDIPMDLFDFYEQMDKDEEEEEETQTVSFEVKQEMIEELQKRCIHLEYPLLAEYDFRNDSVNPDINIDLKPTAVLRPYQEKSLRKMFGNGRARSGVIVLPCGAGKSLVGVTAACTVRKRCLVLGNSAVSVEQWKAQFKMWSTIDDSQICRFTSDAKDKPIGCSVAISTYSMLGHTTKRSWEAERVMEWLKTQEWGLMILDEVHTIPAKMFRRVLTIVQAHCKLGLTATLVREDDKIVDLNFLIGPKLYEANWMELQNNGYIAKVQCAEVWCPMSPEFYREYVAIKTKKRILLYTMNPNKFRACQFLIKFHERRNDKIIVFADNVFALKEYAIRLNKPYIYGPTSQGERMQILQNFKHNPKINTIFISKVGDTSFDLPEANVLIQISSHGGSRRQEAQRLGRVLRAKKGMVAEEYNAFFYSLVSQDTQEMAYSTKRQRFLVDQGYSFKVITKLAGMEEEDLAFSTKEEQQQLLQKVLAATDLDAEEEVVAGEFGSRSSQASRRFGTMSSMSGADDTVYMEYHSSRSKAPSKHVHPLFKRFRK

Binder | stimulation of XPB helicase activity, 2 μg of XPB and 1.2 μg of wild-type TFIIEβ [1] [fold] | binding result (co-IP) | binding result [2] | binding result [3] | binding result [4] | binding result [5]
B1 | 3 | binds | binds |  |  | 
B2 |  |  |  | binds | binds | binds
B3 |  |  |  | binds | binds | binds
